# In publication PMC8362844 (Molecular pharmaceutics, 2020):
# Target: the molecule itself
# Assay: native gel or EMSA
protein,measurement,value
"recombinant human alpha-N-acetylglucosamine-6-sulfatase with C-terminal c-myc tag (enzyme, UniProt P15586-1 37-552, looked up, N-glycosylated with high-mannose residues; mannose-6 phosphorylated at approximately 0.87% (W/W)) VFGVAAGTRRPNVVLLLTDDQDEVLGGMTPLKKTKALIGEMGMTFSSAYVPSALCCPSRASILTGKYPHNHHVVNNTLEGNCSSKSWQKIQEPNTFPAILRSMCGYQTFFAGKYLNEYGAPDAGGLEHVPLGWSYWYALEKNSKYYNYTLSINGKARKHGENYSVDYLTDVLANVSLDFLDYKSNFEPFFMMIATPAPHSPWTAAPQYQKAFQNVFAPRNKNFNIHGTNKHWLIRQAKTPMTNSSIQFLDNAFRKRWQTLLSVDDLVEKLVKRLEFTGELNNTYIFYTSDNGYHTGQFSLPIDKRQLYEFDIKVPLLVRGPGIKPNQTSKMLVANIDLGPTILDIAGYDLNKTQMDGMSLLPILRGASNLTWRSDVLVEYQGEGRNVTDPTCPSLSPGVSQCFPDCVCEDAYNNTYACVRTMSALWNLQYCEFDDQEVFVEVYNLTADPDQITNIAKTIDPELLGKMNYRLMMLQSCSGPTCRTPGVFDPGYRFDPRLMFSNRGSVRTRRFSKHLL",stoichiometry N,2
